Measured values taken from article PMC4694995.

Target: programmed cell death 1 (PD1), endogenous in mouse CD8+ T cells (mouse (endogenous in OT-1 and C57BL/6 CD8+ T cells)) (UniProt Q02242)
Assay: co-IP; Lag3-/- or Pdcd1-/- mouse CD8+ T cells retrovirally transduced with LAG3 or PD1 constructs (pMIG-II), sorted, rested in IL2, restimulated with IE9mp1 for 5 min or treated with pervanadate for 5 min; antibody-conjugated Dynal beads; Western blot, densitometry normalised to input

programmed cell death 1 (PD1), endogenous in mouse CD8+ T cells (mouse (endogenous in OT-1 and C57BL/6 CD8+ T cells)), sequence (Q02242 25-288): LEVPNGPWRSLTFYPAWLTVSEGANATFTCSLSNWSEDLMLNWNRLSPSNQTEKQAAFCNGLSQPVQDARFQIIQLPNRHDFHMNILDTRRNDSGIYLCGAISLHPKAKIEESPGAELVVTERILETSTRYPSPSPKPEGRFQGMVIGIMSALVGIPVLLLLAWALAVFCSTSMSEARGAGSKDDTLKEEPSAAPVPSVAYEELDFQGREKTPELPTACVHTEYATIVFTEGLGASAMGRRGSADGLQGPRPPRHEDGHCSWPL
Src-homology-2 domain-containing phosphatase SHP1, endogenous in mouse CD8+ T cells, P29351 1-595 (enzyme; other documents disagree on this pair), sequence (P29351 whole entry): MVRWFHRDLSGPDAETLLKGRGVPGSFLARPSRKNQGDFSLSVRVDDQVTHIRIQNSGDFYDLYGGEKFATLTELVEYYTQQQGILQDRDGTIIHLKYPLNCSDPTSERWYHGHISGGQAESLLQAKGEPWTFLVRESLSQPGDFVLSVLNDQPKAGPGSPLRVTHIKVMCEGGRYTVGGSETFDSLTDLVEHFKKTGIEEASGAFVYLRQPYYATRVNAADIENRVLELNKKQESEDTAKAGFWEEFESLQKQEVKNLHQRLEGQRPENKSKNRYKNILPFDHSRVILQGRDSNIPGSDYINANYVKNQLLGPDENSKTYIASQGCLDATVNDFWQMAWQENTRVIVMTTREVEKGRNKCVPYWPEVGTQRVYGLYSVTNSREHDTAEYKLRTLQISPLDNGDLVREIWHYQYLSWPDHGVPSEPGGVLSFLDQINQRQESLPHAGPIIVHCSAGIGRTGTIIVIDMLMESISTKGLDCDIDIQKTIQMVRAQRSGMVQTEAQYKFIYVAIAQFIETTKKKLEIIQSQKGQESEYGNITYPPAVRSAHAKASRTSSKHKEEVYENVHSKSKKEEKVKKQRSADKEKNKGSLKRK

Substance | amount pulled down by anti-PD1 antibody, against pLAG3 [% lower] | amount pulled down by anti-PD1 antibody in cells with pΔCY, against cells with pLAG3 [% less]
LAG3 lacking the cytoplasmic domain, expressed from pMIG-LAG3ΔCY in Lag3-/- CD8+ T cells (domain or fragment) | 30 | –
Src-homology-2 domain-containing phosphatase SHP1, endogenous in mouse CD8+ T cells, P29351 1-595 (enzyme; other documents disagree on this pair) | – | 20
